US20210002619

Legend:
[1] = tested on: T1, C-terminal domain of the retinoblastoma protein (Rb (771-928))
T1 sequence: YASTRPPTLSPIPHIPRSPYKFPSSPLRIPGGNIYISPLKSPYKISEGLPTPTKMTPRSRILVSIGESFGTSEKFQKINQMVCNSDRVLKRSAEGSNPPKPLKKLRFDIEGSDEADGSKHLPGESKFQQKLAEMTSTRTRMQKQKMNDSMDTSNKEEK

[2] = tested on: T2, Transactivation domain of FoxM1 (FoxM1 (526-748))
T2 sequence: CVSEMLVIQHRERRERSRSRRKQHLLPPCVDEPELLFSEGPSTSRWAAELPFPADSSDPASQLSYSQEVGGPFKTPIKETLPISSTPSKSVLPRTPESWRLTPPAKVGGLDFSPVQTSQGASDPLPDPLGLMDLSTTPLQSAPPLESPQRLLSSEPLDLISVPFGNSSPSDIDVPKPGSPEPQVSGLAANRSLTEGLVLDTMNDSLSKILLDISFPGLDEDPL

[3] = tested on: Full-length histone H1
Full-length histone H1, sequence (chain, as listed by the source): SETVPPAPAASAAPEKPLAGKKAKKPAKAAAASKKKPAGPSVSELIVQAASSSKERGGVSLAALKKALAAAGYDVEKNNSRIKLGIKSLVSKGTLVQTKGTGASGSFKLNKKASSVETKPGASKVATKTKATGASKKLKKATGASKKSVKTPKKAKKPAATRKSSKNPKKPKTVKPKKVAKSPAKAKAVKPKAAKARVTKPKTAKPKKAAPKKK

Substance | phosphorylation activity (32P-ATP labeling of substrate) [1] | phosphorylation activity (32P-ATP labeling of substrate) [2] | phosphorylation activity (32P-ATP labeling of substrate) [3]
Wild-type p27-Cdk4-CycD1 trimeric complex (v) with phosphorylated p27 (wild-type Cdk4) | had phosphorylation activity toward all substrates | had phosphorylation activity toward all substrates | had phosphorylation activity toward all substrates
Wild-type p27-Cdk4-CycD1 trimeric complex (vi) with phosphorylated p27 (Cdk4 variant having T172E substitution) | had phosphorylation activity toward all substrates | had phosphorylation activity toward all substrates | had phosphorylation activity toward all substrates
